We go through 1 molecule from US6723697B2, “IL-16 antagonists” (Research Corporation Technologies, Inc., priority 1999, dated 2004).

Experiment [1] deals with HIV-1 gp120 (Human immunodeficiency virus type 1 group M subtype B, UniProt P04578). The settings on record: human CD4 point mutant. Here is the method:
Cell migration was assessed using a modified Boyden chamber. (Center, et al., (1982) J. Immunol. 128:2563-2568; Cruikshank, et al., (1982) J. Immunol. 128:2569-2574). […] For blocking experiments, 10^−9 M murine rIL-16 with various concentrations of oligopeptides were mixed and placed in the lower well. The upper and lower wells were separated by 8 μm pore size nitrocellulose filter membrane (Neuro Probe). Following incubation (3 h, 37° C.), the membranes were removed, stained with hematoxylin, and dehydrated. Cell migration was quantified by counting the number of cells migrating beyond a depth of 40 μm. Counts were compared with control cells exposed to M199-HPS alone, which was normalized to 100%. Cell migration is expressed as the mean % control migration. All samples were tested in duplicate, with five high power fields counted in each duplicate.

The target of experiment [2] is T1, murine rIL-16 (Mus musculus, UniProt O54824).
T1 construct: polyhistidine fusion protein containing the 119 C-terminal residues encoded by the previously reported murine cDNA; polyhistidine (cleaved yes); made in house; host or cells: Escherichia coli strain HMS 174, vector pET16b
T1 sequence (O54824 1204-1322): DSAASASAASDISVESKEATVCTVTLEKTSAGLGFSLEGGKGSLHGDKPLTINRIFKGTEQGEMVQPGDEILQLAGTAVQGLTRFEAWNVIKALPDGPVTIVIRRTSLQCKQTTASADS
The experiment in a line: IL-16-stimulated T-lymphocyte migration, human CD4 D4 point mutants. The format is cell-based. The settings on record: human CD4 D4 wild type or point mutant, rIL-16 10^-9 M. Here is the method:
Point mutations at Leu 348 and Leu 349 in human CD4 were prepared as follows.
Initially 100 ng of wild type human CD4 cDNA (Richard Axel, Columbia University, N.Y.) contained within the mammalian expression vector pcDNA3.1(−) (Invitrogen, Carlsbad, Calif.) was subjected to the polymerase chain reaction (PCR) in the presence of 125 ng of each set of primer pairs. PCR conditions were as follows:
The time for the elongation step varied according to the relationship of 2 minutes per kilobase of plasmid DNA length. The product was then subjected to restriction digestion with the enzyme Dpn for 1 h. at 37° C. Dpn is specific for methylated nucleotides and therefore will only cut the original wide type CD4-plasmid DNA. The transformation reaction required the addition of 1 μl of the digest to 50 μl of Epicurean Blue Eschericia coli which was incubated on ice for 30 min. and finally heat shocked 42° C., 45 sec to seal the supercompent bacteria. The resultant bacteria culture was selected on ampicillin plates and sequenced to confirm mutagenesis.
Cell migration was assessed using a modified Boyden chamber. […] Cell migration is expressed as the mean % control migration.
Results from multiple experiments were analyzed using Student's t test for paired variables, and Tukey's test for multiple variables. A P value<0.05 was considered significant.
(FIGS. 10A and 10B). […] (FIGS. 11A and 11B).

B1: NLTCEVWGPTSPKLMLSLKLENKEAKVSKREKAVWVLNPEAGMWNCLLSDSGQVLLESNIKVLPTWSTPVQPM (peptide)
chain: NLTCEVWGPTSPKLMLSLKLENKEAKVSKREKAVWVLNPEAGMWNCLLSDSGQVLLESNIKVLPTWSTPVQPM
modifications: OTHER INFORMATION: Description of Artificial Sequence:IL-16 antagonist peptide
notes: human CD4 D4 with glutamine 346 to asparagine
With B1, the “inhibition of HIV-1 gp120-stimulated T-lymphocytes” value in experiment [1] is given as “no loss in inhibition”. For the same molecule, the “inhibition of IL-16-stimulated T-lymphocyte migration” value in experiment [2] was “IL-16-inhibitory activity”; in experiment [2] (listed as human CD4 (Q346→N)) it was “no loss in inhibition”.
